Experimental data as given in US20240182536A1 (MURAL ONCOLOGY, published 2024).
Substitutions are numbered along the chain they refer to.

T1: IL-18 variant G3T, M60K (human, UniProt Q14116 37-193)
T1 chain: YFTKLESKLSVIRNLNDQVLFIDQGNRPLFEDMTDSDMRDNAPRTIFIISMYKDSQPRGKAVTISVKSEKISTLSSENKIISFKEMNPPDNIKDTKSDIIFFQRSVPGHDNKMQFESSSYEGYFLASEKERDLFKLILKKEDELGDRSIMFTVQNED

T2: IL-18 variant G3V, M60K (human, UniProt Q14116 37-193)
T2 chain: T1 chain with T3V

T3: IL-18 variant G3T, M60K, D157E (human, UniProt Q14116 37-192)
T3 chain: T1 chain with D157E

T4: WT human IL-18 (human, UniProt Q14116 37-193)
T4 sequence: T1 chain with T3G, M38C, K60M, S68C, S76C, S127C

T5: IL-18 variant G3E, K53S (human, UniProt Q14116 37-193)
T5 chain: T1 chain with T3E, K53S, K60M

T6: IL-18 variant G3T, K53S (human, UniProt Q14116 37-193)
T6 chain: T1 chain with K53S, K60M

T7: IL-18 variant G3H, N91V, K53S (human, UniProt Q14116 37-193)
T7 chain: T1 chain with T3H, K53S, K60M, N91V

T8: IL-18 variant G3R, K53S (human, UniProt Q14116 37-193)
T8 chain: T1 chain with T3R, K53S, K60M

B1: human IL-18 binding protein (IL-18BP) (other, UniProt O95998 31-194, looked up)
chain: TPVSQTTTAATASVRSTKDPCPSQPPVFPAAKQCPALEVTWPEVEVPLNGTLSLSCVACSRFPNFSILYWLGNGSFIEHLPGRLWEGSTSRERGSTGTQLCKALVLEQLTPALHSTNFSCVLVDPEQVVQRHVVLAQLWAGLRATLPPTQEALPSSHSSPQQQG
B2: mouse IL-18BP (other, UniProt Q9Z0M9 29-193, looked up)
chain: TSAPQTTATVLTGSSKDPCSSWSPAVPTKQYPALDVIWPEKEVPLNGTLTLSCTACSRFPYFSILYWLGNGSFIEHLPGRLKEGHTSREHRNTSTWLHRALVLEELSPTLRSTNFSCLFVDPGQVAQYHIILAQLWDGLKTAPSPSQETLSSHSPVSRSAGPGVA

Legend:
Assay in all cases: cell-based or functional assay
WT IL-18-MonoFc = WT IL-18-MonoFc (human)
Sequence of WT IL-18-MonoFc (human) (chain, as listed by the source): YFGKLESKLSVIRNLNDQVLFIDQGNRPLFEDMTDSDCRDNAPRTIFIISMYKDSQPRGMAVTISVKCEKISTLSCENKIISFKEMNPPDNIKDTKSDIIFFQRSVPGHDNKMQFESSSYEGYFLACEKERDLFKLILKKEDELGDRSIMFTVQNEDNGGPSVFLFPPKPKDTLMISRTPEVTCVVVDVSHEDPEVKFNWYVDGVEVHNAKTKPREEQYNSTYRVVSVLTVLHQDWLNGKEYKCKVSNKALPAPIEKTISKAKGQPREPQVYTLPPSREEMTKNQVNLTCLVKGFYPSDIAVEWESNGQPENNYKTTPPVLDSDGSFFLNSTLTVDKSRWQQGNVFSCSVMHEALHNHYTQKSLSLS

IL-18 variant G3T, M60K = biological target: T1, IL-18 variant G3T, M60K
IL-18 variant G3V, M60K = biological target: T2, IL-18 variant G3V, M60K
[1] = biological target: T3, IL-18 variant G3T, M60K, D157E
WT human IL-18 [2] = biological target: T4, WT human IL-18
IL-18 variant G3E, K53S [3] = biological target: T5, IL-18 variant G3E, K53S
IL-18 variant G3T, K53S = biological target: T6, IL-18 variant G3T, K53S
[4] = biological target: T7, IL-18 variant G3H, N91V, K53S
WT human IL-18 [5] = biological target: T4, WT human IL-18; remark: listed apart in the source
IL-18 variant G3E, K53S [6] = biological target: T5, IL-18 variant G3E, K53S
[7] = biological target: T7, IL-18 variant G3H, N91V, K53S
WT human IL-18 [8] = biological target: T4, WT human IL-18; remark: listed apart in the source
IL-18 variant G3R, K53S = biological target: T8, IL-18 variant G3R, K53S

Binder	Potency - with IL-18BP (IC50), IFN gamma expression in PBMCs (WT IL-18-MonoFc) [nM]	Potency - with IL-18BP (IC50), IFN gamma expression in PBMCs (IL-18 variant G3T, M60K) [nM]	Potency - with IL-18BP (IC50), IFN gamma expression in PBMCs (IL-18 variant G3V, M60K) [nM]	Potency - with IL-18BP (IC50), IFN gamma expression in PBMCs [1] [nM]	Potency - with IL-18BP (IC50), IFN gamma expression in PBMCs (WT human IL-18 [2]) [nM]	Potency - with IL-18BP (IC50), IFN gamma expression in PBMCs (IL-18 variant G3E, K53S [3]) [nM]	Potency - with IL-18BP (IC50), IFN gamma expression in PBMCs (IL-18 variant G3T, K53S) [nM]	Potency - with IL-18BP (IC50), IFN gamma expression in PBMCs [4] [nM]	IC50 (read off the curve); IFN gamma from human PBMCs, WT IL-18 at 200 pM, human IL-18BP titrated (WT human IL-18 [5]) [pM]	IC50 (read off the curve); IFN gamma from human PBMCs, G3E/K53S at 2000 pM, human IL-18BP titrated; partial inhibition (IL-18 variant G3E, K53S [6]) [pM]	IC50 (read off the curve); IFN gamma from human PBMCs, G3H/K53S/N91V at 1000 pM, human IL-18BP titrated; partial inhibition [7] [pM]	IC50 (read off the curve); IFN gamma from human PBMCs, WT IL-18 at 200 pM, mouse IL-18BP titrated (WT human IL-18 [8]) [pM]	IC50 (read off the curve); IFN gamma from human PBMCs, G3R/K53S at 200 pM, mouse IL-18BP titrated; partial inhibition (IL-18 variant G3R, K53S) [pM]
B1	0.096	> 100	> 100	> 100	0.096	0.925	15.3	24.3	~100	~1000	~20000		
B2												~2000	~10000
